# Assays:
# Human Factor P [1] = biological target: T1, Human Factor P (human, UniProt P27918 29-469); experiment: cell-based or functional assay
# Cynomolgus Factor P [2] = biological target: Cynomolgus Factor P (cynomolgus); experiment: cell-based or functional assay
# Human Factor P [3] = biological target: T1, Human Factor P; experiment: Biacore SPR, captured Factor P
# Cynomolgus Factor P [4] = biological target: T2, Cynomolgus Factor P (cynomolgus); experiment: Biacore SPR, captured Factor P
# T2 construct: Purified from cynomolgus serum for SET/Biacore; Factor P of cynomolgus serum in the functional assays; also called Cyno Factor P; cyno FP
# Human Factor P [5] = biological target: T1, Human Factor P; experiment: SET, solution equilibrium titration
# Protocol: (§1) In SET, a constant amount of antibody is incubated with different concentrations of antigen until equilibrium is reached. The concentration of free antibody in the equilibrated solution is determined by applying the solution on an antigen coated MSD™ plate (Meso Scale Discovery™) followed by incubation with an ECL-labeled secondary antibody and measurement of signal intensity. At low antigen concentrations, a strong signal is achieved (high concentration of free antibody which binds to the antigen on the plate) whereas for high antigen concentration, the antibody is completely antigen-captured, resulting in a low signal. If a sufficient number of antigen concentrations in a matching range are available, the titration curve allows for a reasonable determination of the affinity, using the appropriate fit model. […] The constant concentration of antibody applied in the assay should be in the range of, or below, the KD (Table 4).
# (§2) Human Factor P (Complement Technology cat#: A139) and Cyno Factor P purified from cyno serum (protocol adapted from Nakano, et al., (1986) J Immunol Methods 90:77-83) were coated on standard binding MSD plates (Meso-Scale Discovery, 384-well: MSD cat#: L21XA, 96-well: MSD cat#: L15XA) at 0.2-0.3 μg/ml in 25 μl PBS and incubated overnight at 4° C. Factor P inhibitors were diluted to a fixed concentration (1 pM or 10 pM) in incubation buffer (PBS with 2% BSA (Sigma cat#: A4503) and 1% Tween20 and 1% Triton-X (Sigma cat#: 234729)), and added to a serial dilution of Factor P (human or cyno) in incubation buffer. Samples were allowed to reach equilibrium by incubation at RT overnight. Plates were washed 3× in wash buffer (PBS with 0.05% Tween20), and blocked with 100 μl incubation buffer at RT for 2 hrs. Plates were washed 3× in wash buffer. Sample containing Factor P inhibitors and Factor P titration were added to the plate (25 μl), and incubated at RT for 15 min. Plates were washed 3× in wash buffer. 25 μl detection antibody was added (Anti-Human (Goat) Sulfo-TAG, 1:1000 in incubation buffer, MSD cat#: R32AJ-1), and incubated at RT for 60 min. Plates were washed 3× in wash buffer, and 50 μl of 1×MSD Read buffer T was added (with surfactant, MSD cat#: R92TC-1). Plates were read on a MSD Spector Imager 6000.
# Cynomolgus Factor P [6] = biological target: T2, Cynomolgus Factor P; experiment: SET, solution equilibrium titration
# Protocol: as §1, §2
# T1 sequence (P27918 29-469 limits assumed): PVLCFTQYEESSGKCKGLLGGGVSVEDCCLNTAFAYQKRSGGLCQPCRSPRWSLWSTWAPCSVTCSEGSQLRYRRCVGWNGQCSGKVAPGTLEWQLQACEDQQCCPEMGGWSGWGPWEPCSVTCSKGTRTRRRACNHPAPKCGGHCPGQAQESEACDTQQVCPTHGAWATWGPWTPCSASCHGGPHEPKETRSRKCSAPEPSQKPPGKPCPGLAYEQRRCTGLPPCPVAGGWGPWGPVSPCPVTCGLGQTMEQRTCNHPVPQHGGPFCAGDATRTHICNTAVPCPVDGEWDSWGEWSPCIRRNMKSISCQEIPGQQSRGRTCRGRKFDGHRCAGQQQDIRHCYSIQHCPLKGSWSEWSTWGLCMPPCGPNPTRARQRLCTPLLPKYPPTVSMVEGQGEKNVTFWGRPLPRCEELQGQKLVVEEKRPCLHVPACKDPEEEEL
Binder,"Inhibition of C3a generation, 20% human serum (Human Factor P [1]) [nM]","MAC Deposition, 20% Serum EC50 (Human Factor P [1]) [nM]","Zymosan-C3b IC50 (nM), 10% serum (Human Factor P [1]) [nM]","MAC Deposition, 20% Serum EC50 (Cynomolgus Factor P [2]) [nM]","Zymosan-C3b IC50 (nM), 10% serum (Cynomolgus Factor P [2]) [nM]",Kd (Human Factor P [3]) [nM],koff (Human Factor P [3]) [s⁻¹],kon (Human Factor P [3]) [M⁻¹ s⁻¹],Kd (Cynomolgus Factor P [4]) [nM],koff (Cynomolgus Factor P [4]) [s⁻¹],kon (Cynomolgus Factor P [4]) [M⁻¹ s⁻¹],Kd (Human Factor P [5]) [nM],Kd (Cynomolgus Factor P [6]) [nM],"Hemolytic assay IC50 (nM), 10% serum (Human Factor P [1]) [nM]","Hemolytic assay IC50 (nM), 10% serum (Cynomolgus Factor P [2]) [nM]"
"NVS962 (Fab, V domains shown, also called Fab NVS962) VH: EVQLVQSGAEVKKPGSSVKVSCKASGGTFNSYAISWVRQAPGQGLEWMGRIIPIFGTANYAQKFQGRVTITADESTSTAYMELSSLRSEDTAVYYCARHGGYSFDSWGQGTLVTVSS VL: SYELTQPPSVSVAPGQTARISCSGDNLGSKYVDWYQQKPGQAPVLVIYSDNNRPSGIPERFSGSNSGNTATLTISGTQAEDEADYYCQTYTSGNNYLVFGGGTKLTVLG",78.4,18.8,2.63,12.1,9.91,0.083,0.000125,1.52e+06,0.182,0.000279,1.53e+06,0.046,0.047,13.2,16.1
"NVS962-G (Fab, V domains shown, NVS962 with heavy chain N30 replaced with glycine) VH: EVQLVQSGAEVKKPGSSVKVSCKASGGTFGSYAISWVRQAPGQGLEWMGRIIPIFGTANYAQKFQGRVTITADESTSTAYMELSSLRSEDTAVYYCARHGGYSFDSWGQGTLVTVSS VL: SYELTQPPSVSVAPGQTARISCSGDNLGSKYVDWYQQKPGQAPVLVIYSDNNRPSGIPERFSGSNSGNTATLTISGTQAEDEADYYCQTYTSGNNYLVFGGGTKLTVLG",,12.7,1.18,9.27,2.94,1.14,0.00044,387000,1.08,0.000339,313000,0.953,0.567,13.4,14.2
"NVS808 (Fab, V domains shown) VH: EVQLVQSGAEVKKPGSSVKVSCKASGGTFSSYAISWVRQAPGQGLEWMGRIIPIFGTANYAQKFQGRVTITADESTSTAYMELSSLRSEDTAVYYCARHGGYIFDSWGQGTLVTVSS VL: SYELTQPPSVSVAPGQTARISCSGDNLGSKYVDWYQQKPGQAPVLVIYSDNNRPSGIPERFSGSNSGNTATLTISGTQAEDEADYYCQTYTSGNNYLVFGGGTKLTVLG",,6.51,,8.38,,0.195,0.000154,791000,,,,0.107,,13.3,15.5
"NVS807 (Fab, V domains shown) VH: EVQLVQSGAEVKKPGSSVKVSCKASGGTFSSYAISWVRQAPGQGLEWMGRIIPIFGTANYAQKFQGRVTITADESTSTAYMELSSLRSEDTAVYYCARHGGYYFDSWGQGTLVTVSS VL: SYELTQPPSVSVAPGQTARISCSGDNLGSKYVDWYQQKPGQAPVLVIYSDNNRPSGIPERFSGSNSGNTATLTISGTQAEDEADYYCQTYTSGNNYLVFGGGTKLTVLG",,5.4,,6.35,,0.106,0.000123,1.21e+06,,,,0.027,,12.9,12.6
"NVS962-Q (Fab, V domains shown, NVS962 with heavy chain N30 replaced with glutamine (deamidation site removed)) VH: EVQLVQSGAEVKKPGSSVKVSCKASGGTFQSYAISWVRQAPGQGLEWMGRIIPIFGTANYAQKFQGRVTITADESTSTAYMELSSLRSEDTAVYYCARHGGYSFDSWGQGTLVTVSS VL: SYELTQPPSVSVAPGQTARISCSGDNLGSKYVDWYQQKPGQAPVLVIYSDNNRPSGIPERFSGSNSGNTATLTISGTQAEDEADYYCQTYTSGNNYLVFGGGTKLTVLG",,23.1,0.64,20.9,1.62,0.496,0.000311,627000,0.475,0.000264,555000,1.06,0.93,15.3,14.7
"NVS805 (Fab, V domains shown) VH: EVQLVQSGAEVKKPGSSVKVSCKASGGTFSSYAISWVRQAPGQGLEWMGRIIPIFGTANYAQKFQGRVTITADESTSTAYMELSSLRSEDTAVYYCARHGGYVFDSWGQGTLVTVSS VL: SYVLTQPPSVSVAPGKTARISCSGDNLGSKYVDWYQQKPGQAPVLVIYSDNNRPSGIPERFSGSNSGNTATLTISGTQAMDEADYYCATYDSSPRTEVFGGGTKLTVLG",,5.9,,5.95,,0.003,9.88e-06,3.61e+06,,,,0.0003,,12.8,22.1

# Continued by falling Kd (Human Factor P [3]), values first:
"Inhibition of C3a generation, 20% human serum (Human Factor P [1]) [nM]","MAC Deposition, 20% Serum EC50 (Human Factor P [1]) [nM]","Zymosan-C3b IC50 (nM), 10% serum (Human Factor P [1]) [nM]","MAC Deposition, 20% Serum EC50 (Cynomolgus Factor P [2]) [nM]","Zymosan-C3b IC50 (nM), 10% serum (Cynomolgus Factor P [2]) [nM]",Kd (Human Factor P [3]) [nM],koff (Human Factor P [3]) [s⁻¹],kon (Human Factor P [3]) [M⁻¹ s⁻¹],Kd (Cynomolgus Factor P [4]) [nM],koff (Cynomolgus Factor P [4]) [s⁻¹],kon (Cynomolgus Factor P [4]) [M⁻¹ s⁻¹],Kd (Human Factor P [5]) [nM],Kd (Cynomolgus Factor P [6]) [nM],Binder,"Hemolytic assay IC50 (nM), 10% serum (Human Factor P [1]) [nM]","Hemolytic assay IC50 (nM), 10% serum (Cynomolgus Factor P [2]) [nM]"
,6.53,1.53,15.6,1.94,0.161,0.000117,730000,0.127,6.66e-05,524000,0.156,0.141,"NVS962-S (Fab, V domains shown, NVS962 with heavy chain N30 replaced with serine) VH: EVQLVQSGAEVKKPGSSVKVSCKASGGTFSSYAISWVRQAPGQGLEWMGRIIPIFGTANYAQKFQGRVTITADESTSTAYMELSSLRSEDTAVYYCARHGGYSFDSWGQGTLVTVSS VL: SYELTQPPSVSVAPGQTARISCSGDNLGSKYVDWYQQKPGQAPVLVIYSDNNRPSGIPERFSGSNSGNTATLTISGTQAEDEADYYCQTYTSGNNYLVFGGGTKLTVLG",8.21,12
,5.74,,6.51,,0.052,2.24e-05,434000,,,,0.018,,"NVS806 (Fab, V domains shown) VH: EVQLVQSGAEVKKPGSSVKVSCKASGGTFSSYAISWVRQAPGQGLEWMGRIIPIFGTANYAQKFQGRVTITADESTSTAYMELSSLRSEDTAVYYCARHGGYVFDSWGQGTLVTVSS VL: SYELTQPPSVSVAPGQTARISCSGDNLGSKYVDWYQQKPGQAPVLVIYSDNNRPSGIPERFSGSNSGNTATLTISGTQAEDEADYYCQTYTSGNNYLVFGGGTKLTVLG",10.1,13.9
,6.46,,5.9,,0.0247,0.000104,4.25e+06,,,,0.0042,,"NVS809 (Fab, V domains shown) VH: EVQLVQSGAEVKKPGSSVKVSCKASGGTFSSYAISWVRQAPGQGLEWMGRIIPIFGTANYAQKFQGRVTITADESTSTAYMELSSLRSEDTAVYYCARHGGYYFDSWGQGTLVTVSS VL: SYVLTQPPSVSVAPGKTARISCSGDNLGSKYVDWYQQKPGQAPVLVIYSDNNRPSGIPERFSGSNSGNTATLTISGTQAMDEADYYCATYDSSPRTEVFGGGTKLTVLG",12.1,12.8
,5.85,,8.51,,0.005,1.29e-05,2.72e+06,,,,0.0008,,"NVS804 (Fab, V domains shown) VH: EVQLVQSGAEVKKPGSSVKVSCKASGGTFSSYAISWVRQAPGQGLEWMGRIIPIFGTANYAQKFQGRVTITADESTSTAYMELSSLRSEDTAVYYCARHGGYIFDSWGQGTLVTVSS VL: SYVLTQPPSVSVAPGKTARISCSGDNLGSKYVDWYQQKPGQAPVLVIYSDNNRPSGIPERFSGSNSGNTATLTISGTQAMDEADYYCATYDSSPRTEVFGGGTKLTVLG",12.4,14.4
